These results are taken from patent US20180274003.

For data set [1], the target named is T1, Peptide 1 YKN-thioglc-V (thiodepsipeptide 1).
T1 chain: YKNXV

Data set [2] deals with T2, Peptide 2 YKN-glc-V (depsipeptide 2).
T2 chain: YKNXV

The next data set addresses T3, Peptide 4 YKNGV.
T3 chain: YKNGV

Another data set addresses T4, Peptide 3 YKNHV.
T4 chain: YKNHV

The term Km denotes the substrate concentration at which the rate is half of its maximum. As usually defined, the kcat is the number of substrate molecules converted per active site and unit of time at saturation. Broadly, the kcat/Km is the second-order rate constant that governs catalysis at low substrate concentration.

B1: butelase 1 (protein)
chain: VEGTRWAVLVAGSKGYVNYRHQADVCHAYQILKKGGLKDENIIVFMYDDIAYNESNPHPGVIINHPYGSDVYKGVPKDYVGEDINPPNFYAVLLANKSALTGTGSGKVLDSGPNDHVFIYYTDHGGAGVLGMPSKPYIAASDLNDVLKKKHASGTYKSIVFYVESCESGSMFDGLLPEDHNIYVMGASDTGESSWVTYCPLQHPSPPPEYDVCVGDLFSVAWLEDCDVHNLQTETFQQQYEVVKNKTIVALIEDGTHVVQYGDVGLSKQTLFVYMGTDPANDNNTFTDKNSLGTPRKAVSQRDADLIHYWEKYRRAPEGSSRKAEAKKQLREVMAHRMHIDN
Regarding B1, the Km in data set [1] came to 2760 µM; in data set [2], 740 µM; in the data set with Peptide 4 YKNGV, 880 µM; in the data set with Peptide 3 YKNHV, 300 µM. Besides, the catalytic constant (kcat) was 56.5 s⁻¹ in data set [1], 12.4 s⁻¹ in data set [2], 7.9 s⁻¹ with Peptide 4 YKNGV and 4.1 s⁻¹ in the data set with Peptide 3 YKNHV. The kcat/Km in data set [1] was found to be 20500 M⁻¹ s⁻¹; in data set [2], 16800 M⁻¹ s⁻¹; with Peptide 4 YKNGV, 8900 M⁻¹ s⁻¹; with Peptide 3 YKNHV, 13500 M⁻¹ s⁻¹.
